Test [1] addresses T1, human IGSF11 (VSIG3) expressed on cells (human, UniProt Q5DX21 23-431).
T1 sequence: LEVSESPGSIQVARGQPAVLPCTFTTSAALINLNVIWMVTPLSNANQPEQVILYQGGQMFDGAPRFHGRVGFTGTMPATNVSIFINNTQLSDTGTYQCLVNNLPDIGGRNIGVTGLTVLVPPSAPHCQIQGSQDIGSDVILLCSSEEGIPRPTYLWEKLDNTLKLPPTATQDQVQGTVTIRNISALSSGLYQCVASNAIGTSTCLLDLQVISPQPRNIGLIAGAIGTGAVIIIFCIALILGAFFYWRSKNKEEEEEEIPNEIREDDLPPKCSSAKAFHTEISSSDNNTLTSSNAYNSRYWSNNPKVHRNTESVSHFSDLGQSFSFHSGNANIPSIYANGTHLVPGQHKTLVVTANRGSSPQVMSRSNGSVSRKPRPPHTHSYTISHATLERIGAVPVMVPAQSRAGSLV
Kind of test: IgG FACS Colo741.
Text: (§1) Unbound antibodies were removed by washing the cells three time with FACS buffer. Bound antibodies were detected with a mouse anti-human IgG antibody conjugated with AlexaFluor647.

Test [2] deals with T2, extracellular domain (ECD) of human IGSF11 (VSIG3), recombinant (human, UniProt Q5DX21 23-241).
T2 construct: biotinylated where captured on streptavidin; tags of the reagent not always stated; also called IGSF11 (ECD domain); ECD-IGSF11
T2 sequence: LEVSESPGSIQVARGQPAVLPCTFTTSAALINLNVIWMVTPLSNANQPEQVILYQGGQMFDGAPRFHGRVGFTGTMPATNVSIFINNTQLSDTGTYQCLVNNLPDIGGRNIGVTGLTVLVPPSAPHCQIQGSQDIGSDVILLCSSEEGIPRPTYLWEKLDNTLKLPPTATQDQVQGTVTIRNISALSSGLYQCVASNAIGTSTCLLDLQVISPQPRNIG
The test is described as follows: BLI: biotinylated IGSF11 on streptavidin sensor, ABP bound for 600 s, then VISTA.COMP; VISTA response normalised to that without antibody.
Text: Briefly, biotinylated IGSF11 was loaded on an optical biosensor via a streptavidin surface. The IGSF11-loaded biosensor was dipped into the samples with different concentrations of anti-IGSF11 ABP, and ABPs were bound for 600s.

The target in test [3] is T3, murine IGSF11 expressed on cells (mouse, UniProt P0C673 23-428).
T3 construct: MC38-IGSF11, CT26-IGSF11, MC38-wt (naturally expresses murine IGSF11)
T3 sequence: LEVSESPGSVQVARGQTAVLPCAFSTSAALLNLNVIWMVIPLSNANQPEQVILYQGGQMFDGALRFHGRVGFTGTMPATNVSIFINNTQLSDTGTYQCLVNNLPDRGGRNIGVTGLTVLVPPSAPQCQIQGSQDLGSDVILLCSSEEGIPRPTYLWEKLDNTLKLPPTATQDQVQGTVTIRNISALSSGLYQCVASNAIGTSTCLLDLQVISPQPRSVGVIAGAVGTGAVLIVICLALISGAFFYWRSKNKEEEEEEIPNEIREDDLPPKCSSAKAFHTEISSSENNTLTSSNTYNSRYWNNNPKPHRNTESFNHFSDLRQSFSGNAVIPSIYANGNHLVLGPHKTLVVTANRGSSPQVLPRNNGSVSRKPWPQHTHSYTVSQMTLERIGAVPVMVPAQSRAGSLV
Kind of test: IgG FACS MC38-wt; MC38-wt cells (murine line, not transfected).
Text: as §1

The target in test [4] is T2, extracellular domain (ECD) of human …. Kind of test: KinExA, Fab as CBP 15 pM, single binding curve.
Experimental: (§2) Solution-based binding affinities were determined using the Kinetic Exclusion Assay (KinExA) 4000 system as described below, where binding partners were combined and allowed to reach equilibrium prior to measurement.
(§3) Briefly, anti-IGSF11 ABPs of the invention as Fabs were used as Constant Binding Partner (CBP) and human recombinant IGSF11 ECD was used as Titrant. After reaching equilibrium, free CBP were detected using PMMA beads coated with IGSF11 ECD or IGSF11 IgC2-domain Fc-fusion protein and an anti-human F(ab′)2 antibody conjugated with AlexaFluor647. […] The CBP was incubated with different Titrant concentrations for 16 h (or 72-90 h) to reach equilibrium. The equilibrium binding curves of different CBP concentrations were measured in duplicates and drift correction was applied. The n-curve analysis tool within the KinExA Pro Software version 4.4.26 was applied to obtain one KD value per set of binding curves by finding the best fit of a 1:1 binding model to the data.
The target in test [5] is T3, murine IGSF11 expressed on cells. The test is described as follows: IgG FACS MC38-IGSF11.
Text: as §1
Test [6] has as its target T4, IgC2 domain of human IGSF11 fused to murine IgG2a Fc (human, UniProt Q5DX21 137-241).
T4 construct: not shown: murine IgG2a Fc-region
T4 sequence: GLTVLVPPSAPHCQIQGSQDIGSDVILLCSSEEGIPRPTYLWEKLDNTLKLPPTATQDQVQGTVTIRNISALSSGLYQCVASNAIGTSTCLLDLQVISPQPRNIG
Kind of test: IgG ELISA.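 Note: ELISA binding of IgG antibodies to plate-coated IGSF11 Fc-fusion proteins (full-length ECD, IgV or IgC2 domain), detected via HRP-labelled anti-human IgG with TMB development.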

The target in test [7] is T5, full-length ECD of human IGSF11 fused to murine Fc (human, UniProt Q5DX21 23-241).
T5 construct: also called Fc-fusion IGSF11 ECD; not shown: murine Fc
T5 sequence: T2 sequence
The test is described as follows: IgG ELISA.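 Note: ELISA binding of IgG antibodies to plate-coated IGSF11 Fc-fusion proteins (full-length ECD, IgV or IgC2 domain), detected via HRP-labelled anti-human IgG with TMB development.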

Test [8] deals with T2, extracellular domain (ECD) of human …. Kind of test: BLI apparent affinity, IgG on AHC sensor, IGSF11 ECD 100 nM.
Text: Briefly, various APBs were loaded on an optical biosensor via a commercially available Capture System (AHC sensors, ForteBio).
The target of test [9] is T1, human IGSF11 (VSIG3) expressed on cells. Kind of test: IgG FACS, human IGSF11 cell lines of Table 13.4; human IGSF11 cell lines (Colo741, MDA-MB-231-IGSF11).
Test [10] concerns the target T3, murine IGSF11 expressed on cells. Kind of test: IgG FACS CT26-IGSF11.
Text: as §1
The target in test [11] is T1, human IGSF11 (VSIG3) expressed on cells. The test is described as follows: IgG FACS MDA-MB-231-IGSF11.
Text: as §1
Test [12] deals with T3, murine IGSF11 expressed on cells. The test is described as follows: IgG FACS, murine IGSF11 cell lines of Table 13.4; murine IGSF11 cell lines (MC38-IGSF11, MC38-wt).
For test [13] the target is unchanged. The test is described as follows: IgG FACS MC38-IGSF11. This is another data set of the same source.
Text: as §1
The target of test [14] is T1, human IGSF11 (VSIG3) expressed on cells. The test is described as follows: IgG FACS MDA-MB-231-IGSF11. The source holds these as a separate data set.
Text: as §1
Test [15] deals with T2, extracellular domain (ECD) of human …. The test is described as follows: KinExA, Fab as CBP 80 and 800 pM, n-curve. On the technique in general: A kinetic exclusion assay measures how much of one partner remains free in solution.
Experimental: as §2, §3

Where a chain is given by its changes, count along the chain named.

B1: D-114 (IgG format) (antibody, V domains shown)
VH: EVQLLESGGGLVQPGGSLRLSCAASGFTFQFSALSWVRQAPGKGLEWVSAISYGGGSKYYADSVKGRFTISRDNSKNTLYLQMNSLRAEDTAVYYCARDSRDAYGVAFDLWGQGTMVTVSS
VL: ASVLTQPPSVSAAPGQKVTISCSGSSSNIGNNYVSWYQQLPGTAPKLLIYDNNKRPSGIPDRFSGSKSGTSATLGITGLQAEDEADYYCLSYKLSPGAYVFGGGTKLTVL
In the case of B1, the EC50 in test [1] and in test [3] was less than 0.5 nM in each case. Besides, the “IC50 (read off the curve)” value in test [2] is approximately 0.7 nM.

B2: D-114 (Fab, KinExA constant binding partner) (Fab, V domains shown)
VH: B1 VH
VL: B1 VL
notes: Fab
Regarding B2, the Kd in [4] is less than 0.01 nM.

B3: C-005 (IgG1 format) (antibody, V domains shown)
VH: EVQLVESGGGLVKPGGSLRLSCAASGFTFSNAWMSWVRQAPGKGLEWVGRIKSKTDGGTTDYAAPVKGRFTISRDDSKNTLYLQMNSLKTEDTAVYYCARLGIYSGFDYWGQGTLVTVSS
VL: SYELTQPPSVSVSPGQTASITCSGDKLGDKYASWYQQKPGQSPVLVIYQDSKRPSGIPERFSGSNSGNTATLTISGTQAEDEADYYCHSYTGKPSQVVFGGGTKLTVL
As for B3, the EC50 in test [5] is less than 20 nM; in [6] it was less than 1 nM; in test [7] it was less than 1 nM; in test [9] it was approximately 2 nM; in test [10], less than 20 nM; in test [11], less than 10 nM. This molecule also yielded an EC50 in test [12] of approximately 2 nM. Also, the Kd in test [8] is less than 15 nM.

B4: D-222 (IgG format) (antibody, V domains shown)
VH: EVQLVESGGGLVKPGGSLRLSCAASGFTFSHAWISWVRQAPGKGLEWVGQIKGGPGSGGTSYAEPVKGRFTISRDDSKNTLYLQMNSLKTEDTAVYYCARLGIYSGFDYWGQGTLVTVSS
VL: B3 VL with S89T, T91S, G92H, K93R, S95E, Q96I
B4: the EC50 in [13], in [1] and in test [14] was less than 0.5 nM throughout.

B5: D-222 (Fab, KinExA constant binding partner) (Fab, V domains shown)
VH: B4 VH
VL: B3 VL with S89T, T91S, G92H, K93R, S95E, Q96I
notes: Fab
For B5, the Kd in [15] is less than 0.15 nM.

The term EC50 denotes the concentration that produces a half-maximal response. Low readings indicate a more potent agent, high ones a less potent agent.

The record behind these values is patent publication US20220372138A1 (IOMX THERAPEUTICS, published 2022).
